Measurements from PMC12123462, “Novel Click Coupling Chemistry to Explore Glycan Recognition” (ACS Central Science, 2025).

Substrate: CC(=O)N[C@H]1[C@H]([C@H](O)[C@H](O)CO)O[C@](OP(=O)(O)OC[C@H]2O[C@@H](n3ccc(N)nc3=O)[C@H](O)[C@@H]2O)(C(=O)O)C[C@@H]1O
Assay: neoglycoprotein ELISA, product detected with APDye-532 SNA
Type: biochemical, Homo sapiens
Conditions: acceptor BSA-LNnT immobilised (250 ng/well), MES pH 6.5, 37 °C, 2 h
Source text: neoglycoprotein ELISA, product detected with APDye-532 SNA on recombinant human ST6Gal1 | K m of CMP-Sia for the recombinant human ST6Gal1

B1: recombinant human ST6Gal1 (Homo sapiens) (protein)
chain: KEKKKGSYYDSFKLQTKEFQVLKSLGKLAMGSDSQSVSSSSTQDPHRGRQTLGSLRGLAKAKPEASFQVWNKDSSSKNLIPRLQKIWKNYLSMNKYKVSYKGPGPGIKFSAEALRCHLRDHVNVSMVEVTDFPFNTSEWEGYLPKESIRTKAGPWGRCAVVSSAGSLKSSQLGREIDDHDAVLRFNGAPTANFQQDVGTKTTIRLMNSQLVTTEKRFLKDSLYNEGILIVWDPSVYHSDIPKWYQNPDYNFFNNYKTYRKLHPNQPFYILKPQMPWELWDILQEISPEEIQPNPPSSGMLGIIIMMTLCDQVDIYEFLPSKRKTDVCYYYQKFFDSACTMGAYHPLLYEKNLVKHLNQGTDEDIYLLGKATLPGFRTIHC
notes: recombinant
  Km: 141.4 µM
